Experimental findings from patent publication US10487331 are described below.

Data set [1] concerns surface proteins of Aggregatibacter actinomycetemcomitans (whole cells) (Aggregatibacter actinomycetemcomitans). The settings on record: whole-cell binding, real-time PCR of eluted aptamer, SELEX buffer, room temperature. (In qPCR the cycle at which signal appears reflects the starting amount.)
The subject of data set [2] is surface proteins of Porphyromonas gingivalis (whole cells) (Porphyromonas gingivalis). Particulars: whole-cell binding, real-time PCR of eluted aptamer, SELEX buffer, room temperature.

One may read the Kd as a measure of binding affinity in units of concentration.

Consider “TCCCTACGGCGCTAACCGTATGTGTACCCGGTGGGGCGCGATTGACGCCACCGTGCTACAAC [A. actinomycetemcomitans aptamer]”, for which, in data set [1], the Kd came to 3.5 nM.
In the case of “TCCCTACGGCGCTAACTGTAACTGGGAGCGGACCTAGGTTACATGAGCCACCGTGCTACAAC [P. gingivalis aptamer]”, in data set [2], the Kd was 4.59 nM.
